Assay results: article PMC3963067

Molecular target: mysterin/RNF213, wild type, full length, C-terminally 3 × FLAG-tagged (mysterin-FLAG) and C-terminally cMyc-tagged (mysterin-Myc) copies (human) (UniProt Q63HN8)
Test: co-IP; two differently tagged copies (C-terminal 3 × FLAG and cMyc) co-expressed in HEK-293 cells; lysate immunoprecipitated with anti-FLAG antibody, immunoblot with anti-Myc antibody; lysis buffer 1% NP-40, 150 mM KCl, 50 mM HEPES-NaOH pH 7.5
Details: remark: other sources report otherwise

“mysterin/RNF213, wild type, full length, C-terminally 3 × FLAG-tagged (mysterin-FLAG) and C-terminally cMyc-tagged (mysterin-Myc) copies, Q63HN8 1-5207” showed an efficiency of the co-IP (co-IP divided by the basal expression level) of 1 to 3%.
